{"source": "paper doi:10.1101/591495", "about": "(bioRxiv, 2019)", "proteins": {"B1": {"name": "B. stearothermophilus tryptophanyl-tRNA synthetase (TrpRS) (enzyme, UniProt P00953 1-328, looked up)", "chain": "MKTIFSGIQPSGVITIGNYIGALRQFVELQHEYNCYFCIVDQHAITVWQDPHELRQNIRRLAAKYLAVGIDPTQATLFIQSEVPAHAQAAWMLQCIVYIGELERMTQFKEKSAGKEAVSAGLLTYPPLMAADILLYNTDIVPVGEDQKQHIELTRDLAERFNKRYGELFTIPEARIPKVGARIMSLVDPTKKMSKSDPNPKAYITLLDDAKTIEKKIKSAVTDSEGTIRYDKEAKPGISNLLNIYSTLSGQSIEELERQYEGKGYGVFKADLAQVVIETLRPIQERYHHWMESEELDRVLDEGAEKANRVASEMVRKMEQAMGLGRRR"}}, "biological_target": "the molecule itself", "assay": "atomic force microscopy", "data": [{"protein": "B1", "values": [{"measurement": "Kd", "result": 5, "unit": "nM"}]}]}
